Tested on: Escherichia coli TOP10
Experiment: shrunken log2 fold change of peptide-encoding DNA abundance (4.5 h post-induction vs induction); higher = less antimicrobial activity (less host growth inhibition)
Conditions: time post-induction: 4.5 h; library: site-saturation at positions 5, 18, 19, 20
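Note: peptides expressed intracellularly from a pBAD plasmid library in pooled LB shake-flask culture, induced with 0.3% L-arabinose, DNA abundance read by NGS, three biological replicates, DESeq2 with apeglm shrinkage.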

| Sequence | shrunken log2 fold change |
| --- | --- |
| RRIRHRPPRLPRPRPRPWDCPRP | -0.00608 |
| RRIRHRPPRLPRPRPRPWDLPRP | -0.245 |
| RRIRHRPPRLPRPRPRPWFWPRP | 0.0142 |
| RRIRHRPPRLPRPRPRPWGCPRP | -0.106 |
| RRIRHRPPRLPRPRPRPWMVPRP | -0.0202 |
| RRIRHRPPRLPRPRPRPWNCPRP | -0.366 |
| RRIRHRPPRLPRPRPRPWPMPRP | 0.0159 |
| RRIRHRPPRLPRPRPRPWPRPRP | 0.166 |
| RRIRHRPPRLPRPRPRPWRGPRP | 0.115 |
| RRIRHRPPRLPRPRPRPWSKPRP | -0.301 |
| RRIRHRPPRLPRPRPRPWTTPRP | 0.00489 |
| RRIRHRPPRLPRPRPRPWVMPRP | -0.166 |
| RRIRHRPPRLPRPRPRPWWCPRP | -0.034 |
| RRIRHRPPRLPRPRPRPWWYPRP | -0.0664 |
| RRIRHRPPRLPRPRPRPYAFPRP | 0.0613 |
| RRIRHRPPRLPRPRPRPYANPRP | -0.271 |
| RRIRHRPPRLPRPRPRPYFCPRP | -0.444 |
| RRIRHRPPRLPRPRPRPYGSPRP | -0.0135 |
| RRIRHRPPRLPRPRPRPYIPPRP | -0.194 |
| RRIRHRPPRLPRPRPRPYKDPRP | -0.017 |
| RRIRHRPPRLPRPRPRPYKMPRP | -0.226 |
| RRIRHRPPRLPRPRPRPYNAPRP | -0.00175 |
| RRIRHRPPRLPRPRPRPYNTPRP | -1.01 |
| RRIRHRPPRLPRPRPRPYSQPRP | -0.177 |
| RRIRHRPPRLPRPRPRPYSTPRP | 0.122 |

| Sequence | shrunken log2 fold change |
| --- | --- |
| RRIRHRPPRLPRPRPRPYTNPRP | -0.461 |
| RRIRHRPPRLPRPRPRPYWYPRP | -1.25 |
| RRIRIRPPRLPRPRPRPAADPRP | 0.0637 |
| RRIRIRPPRLPRPRPRPAALPRP | -0.134 |
| RRIRIRPPRLPRPRPRPAEMPRP | 0.0228 |
| RRIRIRPPRLPRPRPRPAFIPRP | -0.509 |
| RRIRIRPPRLPRPRPRPAFKPRP | -0.317 |
| RRIRIRPPRLPRPRPRPAGHPRP | -0.159 |
| RRIRIRPPRLPRPRPRPAHAPRP | -0.0674 |
| RRIRIRPPRLPRPRPRPAHHPRP | -0.176 |
| RRIRIRPPRLPRPRPRPAILPRP | 0.089 |
| RRIRIRPPRLPRPRPRPAKIPRP | -0.176 |
| RRIRIRPPRLPRPRPRPAMEPRP | 0.0199 |
| RRIRIRPPRLPRPRPRPANRPRP | -0.159 |
| RRIRIRPPRLPRPRPRPANVPRP | -0.0188 |
| RRIRIRPPRLPRPRPRPAPPPRP | 0.398 |
| RRIRIRPPRLPRPRPRPAPQPRP | 0.363 |
| RRIRIRPPRLPRPRPRPAQTPRP | -0.0145 |
| RRIRIRPPRLPRPRPRPAQWPRP | 0.211 |
| RRIRIRPPRLPRPRPRPARYPRP | -0.264 |
| RRIRIRPPRLPRPRPRPASQPRP | -0.073 |
| RRIRIRPPRLPRPRPRPATYPRP | 0.00351 |
| RRIRIRPPRLPRPRPRPAVWPRP | 0.141 |
| RRIRIRPPRLPRPRPRPAWIPRP | -0.187 |
| RRIRIRPPRLPRPRPRPCAYPRP | -0.0396 |

| Sequence | shrunken log2 fold change |
| --- | --- |
| RRIRIRPPRLPRPRPRPCCDPRP | -0.67 |
| RRIRIRPPRLPRPRPRPCCRPRP | -0.322 |
| RRIRIRPPRLPRPRPRPCDYPRP | -1.01 |
| RRIRIRPPRLPRPRPRPCGKPRP | -0.025 |
| RRIRIRPPRLPRPRPRPCGLPRP | -0.0428 |
| RRIRIRPPRLPRPRPRPCICPRP | -0.148 |
| RRIRIRPPRLPRPRPRPCLAPRP | -0.693 |
| RRIRIRPPRLPRPRPRPCLMPRP | -0.601 |
| RRIRIRPPRLPRPRPRPCMPPRP | -0.908 |
| RRIRIRPPRLPRPRPRPCNDPRP | -0.0787 |
| RRIRIRPPRLPRPRPRPCNHPRP | -0.232 |
| RRIRIRPPRLPRPRPRPCNMPRP | -0.0732 |
| RRIRIRPPRLPRPRPRPCQCPRP | -1.17 |
| RRIRIRPPRLPRPRPRPCQEPRP | -0.119 |
| RRIRIRPPRLPRPRPRPCQSPRP | -0.00131 |
| RRIRIRPPRLPRPRPRPCRPPRP | -0.0283 |
| RRIRIRPPRLPRPRPRPCRYPRP | -0.317 |
| RRIRIRPPRLPRPRPRPCSSPRP | 0.00235 |
| RRIRIRPPRLPRPRPRPCTQPRP | -0.361 |
| RRIRIRPPRLPRPRPRPCTRPRP | 0.0316 |
| RRIRIRPPRLPRPRPRPCVPPRP | -0.162 |
| RRIRIRPPRLPRPRPRPDCKPRP | -0.477 |
| RRIRIRPPRLPRPRPRPDETPRP | -0.183 |
| RRIRIRPPRLPRPRPRPDFMPRP | -0.661 |
| RRIRIRPPRLPRPRPRPDGQPRP | -0.0297 |

— the supplement of paper PMC9112550, “Optimization of the antimicrobial peptide Bac7 by deep mutational scanning” (BMC Biology, 2022)
